Experimental data reported in patent US20230107856A1 (SHANGHAI JUNSHI BIOSCIENCES, published 2023).
Values joined by “and” are separate entries in the source; they are usually repeats but may differ in a detail not shown here. Equal entries are not always repeated.

Molecular target: T1, PD-1 (as used in the competitive ELISA) (UniProt Q15116 25-167, limits assumed)
T1 construct: PD-1 is inferred as the target from the next sentence on PD-1 receptor occupancy
Assay: competitive ELISA; competing ligand not named

B1: toripalimab (antibody, human IgG4 S228P, kappa, V domains shown)
VH: QGQLVQSGAEVKKPGASVKVSCKASGYTFTDYEMHWVRQAPIHGLEWIGVIESETGGTAYNQKFKGRVTITADKSTSTAYMELSSLRSEDTAVYYCAREGITTVATTYYWYFDVWGQGTTVTVSS
VL: DVVMTQSPLSLPVTLGQPASISCRSSQSIVHSNGNTYLEWYLQKPGQSPQLLIYKVSNRFSGVPDRFSGSGSGTDFTLKISRVEAEDVGVYYCFQGSHVPLTFGQGTKLEIKR
notes: Humanized IgG4 mAb; also called JS001; anti-PD-1 antibody toripalimab
  IC50: 3 nM and ~0.5 µg/mL
